Laboratory results: patent EP4814011A1 (Shanghai Huaota Biopharmaceutical Co., Ltd., dated 2026)
Positions count from the first letter of the chain named. Numbers in names are those of the source. Each block holds one binder with its values, some of them ahead of it.

Legend:
[1] = biological target: T1, Lysozyme solution from chicken egg (chicken, UniProt P00698 19-147); experiment: SPR, protein coupled to CM5
T1 construct: Amine coupled to a CM5 chip

[2] = biological target: T2, Trypsin inhibitor type 1-S from Glycine max (Glycine max, UniProt P01070 25-205); experiment: SPR, protein coupled to CM5
T2 construct: Amine coupled to a CM5 chip
T2 sequence (looked up): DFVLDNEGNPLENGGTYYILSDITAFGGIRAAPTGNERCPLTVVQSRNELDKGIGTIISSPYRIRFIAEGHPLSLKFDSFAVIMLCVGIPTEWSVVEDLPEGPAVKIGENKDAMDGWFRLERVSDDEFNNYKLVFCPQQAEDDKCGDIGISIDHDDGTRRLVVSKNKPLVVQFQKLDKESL

[3] = biological target: Human TSLP (form and source not stated) (human, UniProt Q969D9 29-159, limits assumed); experiment: cell-based or functional assay
[4] = biological target: T3, human TSLP with His tag (ACRO, TSP-H52Ha) (human, UniProt Q969D9 29-159); experiment: SPR, His-TSLP captured on anti-His CM5, antibody analyte
T3 construct: Bought protein; also called human TSLP antigens; Human TSLP (Acro, #TSP-H52Ha); not shown: His tag

[5] = biological target: T4, monkey TSLP antigen (R127A, R130S) Protein, His Tag (ACRO, Cat#: TSP-C52H4) (monkey, UniProt A0A7N9CAT7 29-159); experiment: as above
T4 construct: Bought protein
T4 sequence (A0A7N9CAT7 entry or part of it R127A R130S R127A R130S limits assumed, form in doubt): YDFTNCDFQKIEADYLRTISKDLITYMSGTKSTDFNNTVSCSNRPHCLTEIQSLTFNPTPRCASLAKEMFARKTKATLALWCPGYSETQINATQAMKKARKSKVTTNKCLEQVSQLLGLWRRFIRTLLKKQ

T1 sequence (P00698 19-147 limits assumed): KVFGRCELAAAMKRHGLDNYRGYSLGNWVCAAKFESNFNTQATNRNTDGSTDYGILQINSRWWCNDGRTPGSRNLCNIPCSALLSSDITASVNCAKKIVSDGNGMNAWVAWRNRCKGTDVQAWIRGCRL

binding response (RU) [1]: 1.4 RU
binding response (RU) [2]: 6.8 RU
TARC in PBMC supernatant (ELISA) [3]: ~10 times better than Tezepelumab
Kd [4]: 0.172 nM
koff [4]: 0.000126 s⁻¹
kon [4]: 733000 M⁻¹ s⁻¹
Kd [5]: 5.06 nM
koff [5]: 0.0165 s⁻¹
kon [5]: 3.27e+06 M⁻¹ s⁻¹
B1: 900792-huH2L2 (antibody, human IgG1, kappa, L234A L235A, V domains shown)
VH: QVQLVQSGAEVKKPGASVKVSCKASGYAFTNYLIEWVRQAPGQGLEWMGIINPESGDTYYAQKFQGRVTMTADKSTSTAYMELSSLRSEDSAVYFCAKESLTGSSYDYWGQGTTLTVSS
VL: DIQMTQSPSSLSASVGDRVTITCRASENIYSNLVWYQQKPGKAPQLLVYGARNLQSGVPSRFSGSGSGTQFSLTISSLQPEDFATYYCQHFYETPLTFGTGTKLEIKR
notes: Humanized

binding response (RU) [1]: 3.3 RU
binding response (RU) [2]: 8.6 RU
TARC in PBMC supernatant (ELISA) [3]: ~10 times better than Tezepelumab
Kd [4]: 0.234 nM
koff [4]: 0.000174 s⁻¹
kon [4]: 743000 M⁻¹ s⁻¹
Kd [5]: 3.99 nM
koff [5]: 0.013 s⁻¹
kon [5]: 3.27e+06 M⁻¹ s⁻¹
B2: 900792-huH4L2 (antibody, human IgG1, kappa, L234A L235A, V domains shown)
VH: B1 VH with M70L, F95Y
VL: B1 VL
notes: Humanized

binding response (RU) [1]: 0.9 RU
binding response (RU) [2]: 5.6 RU
TARC in PBMC supernatant (ELISA) [3]: ~10 times better than Tezepelumab
Kd [4]: 0.175 nM
koff [4]: 0.000129 s⁻¹
kon [4]: 737000 M⁻¹ s⁻¹
Kd [5]: 6.22 nM
koff [5]: 0.0362 s⁻¹
kon [5]: 5.82e+06 M⁻¹ s⁻¹
B3: 900792-huH3L1 (antibody, human IgG1, kappa, L234A L235A, V domains shown)
VH: B1 VH with V5Q, I50V, A61S
VL: B1 VL with Q55A, S56D
notes: Humanized

binding response (RU) [1]: 0.8 RU
binding response (RU) [2]: 6.9 RU
TARC in PBMC supernatant (ELISA) [3]: ~10 times better than Tezepelumab
Kd [4]: 0.141 nM
koff [4]: 0.00011 s⁻¹
kon [4]: 782000 M⁻¹ s⁻¹
Kd [5]: 3.82 nM
koff [5]: 0.0122 s⁻¹
kon [5]: 3.19e+06 M⁻¹ s⁻¹
B4: 900792-huH2L1 (antibody, human IgG1, kappa, L234A L235A, V domains shown)
VH: B1 VH
VL: B1 VL with Q55A, S56D
notes: Humanized

binding response (RU) [1]: 1.5 RU
binding response (RU) [2]: 8.1 RU
TARC in PBMC supernatant (ELISA) [3]: ~10 times better than Tezepelumab
Kd [4]: 0.131 nM
koff [4]: 0.000108 s⁻¹
kon [4]: 822000 M⁻¹ s⁻¹
Kd [5]: 5.05 nM
koff [5]: 0.0327 s⁻¹
kon [5]: 6.47e+06 M⁻¹ s⁻¹
B5: 900792-huH3L2 (antibody, human IgG1, kappa, L234A L235A, V domains shown)
VH: B1 VH with V5Q, I50V, A61S
VL: B1 VL
notes: Humanized

binding response (RU) [1]: 1.9 RU
binding response (RU) [2]: 8.7 RU
TARC in PBMC supernatant (ELISA) [3]: ~10 times better than Tezepelumab
Kd [4]: 0.189 nM
koff [4]: 0.000143 s⁻¹
kon [4]: 755000 M⁻¹ s⁻¹
Kd [5]: 6.01 nM
koff [5]: 0.087 s⁻¹
kon [5]: 1.45e+07 M⁻¹ s⁻¹
B6: 900792-huH3L3 (antibody, human IgG1, kappa, L234A L235A, V domains shown)
VH: B1 VH with V5Q, I50V, A61S
VL: B1 VL with V48I, S72T
notes: Humanized

binding response (RU) [1]: 4 RU
binding response (RU) [2]: 9.6 RU
TARC in PBMC supernatant (ELISA) [3]: ~10 times better than Tezepelumab
Kd [4]: 0.117 nM
koff [4]: 8.15e-05 s⁻¹
kon [4]: 694000 M⁻¹ s⁻¹
Kd [5]: 4.17 nM
koff [5]: 0.00873 s⁻¹
kon [5]: 2.09e+06 M⁻¹ s⁻¹
B7: 900792-huH4L1 (antibody, human IgG1, kappa, L234A L235A, V domains shown)
VH: B1 VH with M70L, F95Y
VL: B1 VL with Q55A, S56D
notes: Humanized

binding response (RU) [1]: 1.8 RU
binding response (RU) [2]: 5.7 RU
TARC in PBMC supernatant (ELISA) [3]: ~10 times better than Tezepelumab
Kd [4]: 0.126 nM
koff [4]: 9.45e-05 s⁻¹
kon [4]: 748000 M⁻¹ s⁻¹
Kd [5]: 8.16 nM
koff [5]: 0.00339 s⁻¹
kon [5]: 416000 M⁻¹ s⁻¹
B8: 900792-huH1L1 (antibody, human IgG1, kappa, L234A L235A, V domains shown)
VH: B1 VH with V5Q, M48I, I50V, A61S, Q62E, M70L
VL: B1 VL with Q55A, S56D
notes: Humanized

binding response (RU) [1]: 5.9 RU
binding response (RU) [2]: 6.8 RU
TARC in PBMC supernatant (ELISA) [3]: ~10 times better than Tezepelumab
Kd [4]: 0.172 nM
koff [4]: 0.000126 s⁻¹
kon [4]: 733000 M⁻¹ s⁻¹
Kd [5]: 5.88 nM
koff [5]: 0.0189 s⁻¹
kon [5]: 3.22e+06 M⁻¹ s⁻¹
B9: 900792-huH2L3 (antibody, human IgG1, kappa, L234A L235A, V domains shown)
VH: B1 VH
VL: B1 VL with V48I, S72T
notes: Humanized

binding response (RU) [1]: 2 RU
binding response (RU) [2]: 6 RU
TARC in PBMC supernatant (ELISA) [3]: ~10 times better than Tezepelumab
Kd [4]: 0.176 nM
koff [4]: 0.000126 s⁻¹
kon [4]: 713000 M⁻¹ s⁻¹
Kd [5]: 8.23 nM
koff [5]: 0.00274 s⁻¹
kon [5]: 333000 M⁻¹ s⁻¹
B10: 900792-huH1L2 (antibody, human IgG1, kappa, L234A L235A, V domains shown)
VH: B1 VH with V5Q, M48I, I50V, A61S, Q62E, M70L
VL: B1 VL
notes: Humanized

binding response (RU) [1]: 1 RU
binding response (RU) [2]: 5.9 RU
TARC in PBMC supernatant (ELISA) [3]: ~10 times better than Tezepelumab
Kd [4]: 0.0964 nM
koff [4]: 7.02e-05 s⁻¹
kon [4]: 728000 M⁻¹ s⁻¹
Kd [5]: 7.99 nM
koff [5]: 0.00321 s⁻¹
kon [5]: 402000 M⁻¹ s⁻¹
B11: 900792-huH1L3 (antibody, human IgG1, kappa, L234A L235A, V domains shown)
VH: B1 VH with V5Q, M48I, I50V, A61S, Q62E, M70L
VL: B1 VL with V48I, S72T
notes: Humanized

binding response (RU) [1]: 2.4 RU
binding response (RU) [2]: 6.6 RU
TARC in PBMC supernatant (ELISA) [3]: ~10 times better than Tezepelumab
Kd [4]: 0.157 nM
koff [4]: 0.000121 s⁻¹
kon [4]: 771000 M⁻¹ s⁻¹
Kd [5]: 4.18 nM
koff [5]: 0.00989 s⁻¹
kon [5]: 2.37e+06 M⁻¹ s⁻¹
B12: 900792-huH4L3 (antibody, human IgG1, kappa, L234A L235A, V domains shown)
VH: B1 VH with M70L, F95Y
VL: B1 VL with V48I, S72T
notes: Humanized

binding response (RU) [1]: 2.1 RU
binding response (RU) [2]: 7.2 RU
Kd [4]: 0.223 nM
koff [4]: 0.000157 s⁻¹
kon [4]: 703000 M⁻¹ s⁻¹
Kd [5]: 4.58 nM
koff [5]: 0.0159 s⁻¹
kon [5]: 3.47e+06 M⁻¹ s⁻¹
B13: 900792 chimera (antibody, human IgG1, kappa, L234A L235A, V domains shown)
VH: QVQLQQSGAELVRPGTSVKVSCKASGYAFTNYLIEWVKQRPGQGLEWIGVINPESGDTYYSEKFKGKATLTADKSSSTAYMQLSSLTSEDSAVYFCAKESLTGSSYDYWGQGTTLTVSS
VL: DIQMTQSPASLSASVGESVTITCRASENIYSNLVWYQQKQGKSPQLLVYGARNLADGVPSRFSGSGSGTQFSLKINSLQPEDFGNYYCQHFYETPLTFGTGTKLEIKR
notes: Human-mouse chimera of clone 77E6; human IgG1 constant region with L234A and L235A (Eu), human kappa
